The text below walks through data of article PMC12409452.

For the assay, the target named is mitochondrial electron transport chain complex III2 (UniProt P22695). The experiment in a line: BN-PAGE immunoblot (Ndufb8), band quantification. To be noted: A549 cells transfected with Ndufs1 plasmid; respirasome band CIn+CIIIn+CIVn normalised to free CI band; n = 3, mean ± SD; parent: est. 0.04; read off a plot.
UniProt P22695, sequence (P22695 whole entry, looked up, one chain of several): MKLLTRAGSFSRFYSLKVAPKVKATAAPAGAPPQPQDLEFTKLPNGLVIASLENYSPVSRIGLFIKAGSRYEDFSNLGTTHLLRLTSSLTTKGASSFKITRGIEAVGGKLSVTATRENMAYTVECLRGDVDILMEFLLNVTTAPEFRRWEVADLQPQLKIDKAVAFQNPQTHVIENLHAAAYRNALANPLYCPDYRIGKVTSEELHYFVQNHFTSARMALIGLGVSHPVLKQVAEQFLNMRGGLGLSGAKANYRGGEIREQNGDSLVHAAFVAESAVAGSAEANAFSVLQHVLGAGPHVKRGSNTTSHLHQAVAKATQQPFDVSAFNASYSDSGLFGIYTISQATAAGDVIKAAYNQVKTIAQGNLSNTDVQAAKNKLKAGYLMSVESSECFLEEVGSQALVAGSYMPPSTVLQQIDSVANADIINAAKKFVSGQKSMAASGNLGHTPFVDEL
In the case of “mitochondrial electron transport chain complex I with wild-type Ndufs1 (from UniProt P28331;O95169) C64D”, the other: Relative Respirasome level (vs CI) was 1.9. In the case of “mitochondrial electron transport chain complex I with wild-type Ndufs1 (from UniProt P28331;O95169) C75D”, the other: Relative Respirasome level (vs CI) is 1.9.

Turning to “mitochondrial electron transport chain complex I with wild-type Ndufs1 (from UniProt P28331;O95169) C78D”, the other: Relative Respirasome level (vs CI) was determined as 1.4. As to “mitochondrial electron transport chain complex I with wild-type Ndufs1 (from UniProt P28331;O95169) C92D”, the other: Relative Respirasome level (vs CI) stood at 1.5. Next, “mitochondrial electron transport chain complex I with wild-type Ndufs1 (from UniProt P28331;O95169) C367D”: 0.15; “mitochondrial electron transport chain complex I with wild-type Ndufs1 (from UniProt P28331;O95169) C554D”: 1.1. For “mitochondrial electron transport chain complex I with wild-type Ndufs1 (from UniProt P28331;O95169) C564D”, the other: Relative Respirasome level (vs CI) was found to be 1.2. In the case of “mitochondrial electron transport chain complex I with wild-type Ndufs1 (from UniProt P28331;O95169) C727D”, the other: Relative Respirasome level (vs CI) is 1.
